Changes are numbered by the printed parent chain. Like-named read-outs stand apart in the source and are kept apart here. Blank lines part the entries; values can stand above or below the binder they belong to.
Experiments:
Assay in all cases: pull-down
[1] = molecular target: FER–CD (+ ATP) treated with CIP (Arabidopsis thaliana, UniProt Q9SCZ4 469-895)
[2] = molecular target: T1, FER^K565R–CD–His (kinase dead form) (Arabidopsis thaliana, UniProt Q9SCZ4 469-895, K565R)
6 × His-tagged FER–CD = 6 × His-tagged FER–CD (Arabidopsis thaliana, UniProt Q9SCZ4 469-895)
Sequence of 6 × His-tagged FER–CD (Q9SCZ4 469-895): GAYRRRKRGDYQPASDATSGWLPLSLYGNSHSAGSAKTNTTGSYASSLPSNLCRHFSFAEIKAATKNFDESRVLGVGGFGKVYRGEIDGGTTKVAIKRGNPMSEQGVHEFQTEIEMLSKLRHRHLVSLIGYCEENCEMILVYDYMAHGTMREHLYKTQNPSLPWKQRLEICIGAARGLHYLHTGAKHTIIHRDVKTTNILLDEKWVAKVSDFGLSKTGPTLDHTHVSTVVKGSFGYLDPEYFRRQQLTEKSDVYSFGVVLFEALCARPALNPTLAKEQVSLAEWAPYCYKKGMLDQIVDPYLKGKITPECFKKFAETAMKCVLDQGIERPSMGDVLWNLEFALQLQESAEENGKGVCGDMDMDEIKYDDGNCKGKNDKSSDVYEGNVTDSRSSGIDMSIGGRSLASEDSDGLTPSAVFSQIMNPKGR

[3] = molecular target: T1, FER^K565R–CD–His (kinase dead form); remark: listed apart in the source

T1 sequence (Q9SCZ4 469-895 K565R): as the sequence (Q9SCZ4 469-895) above, with K97R counted along it
Sequence of FER–CD (+ ATP) treated with CIP (Q9SCZ4 469-895): as the sequence (Q9SCZ4 469-895) above

B1: GST–CAR9^3M (natural protein)
chain: MEDKPLGILRVHVKRGINLAIRDATAADPFVVITLANQKLKTRVINNNCNPVWNEQLTLSIKDVNDPIRLTVFDKDRFSGDDKMGDAEIDFRPFLEAHQMELDFQKLPNGCAIKRIRPGRTNCLAEESSITWSNGKIMQEMILRLKNVECGEVELMLEWTDGPGCKGLGREGSKKTPWMPTKRLD
- binding result [1]: binds
- binding result [2]: binds

B2: GST–CAR5 (natural protein)
chain: MIVSFLYFSSLFPTSLRKINLVAGEKHKDRRMKPSLMDSLLGLLRIRIKRGVNLAVRDLNSSDPYVVVKMAKQKLKTRVIYKNVNPEWNEDLTLSVSDPNLTVLLTVYDYDTFTKDDKMGDAEFGIKPFVNALKMHLHDLPSGTIVTTVQPSRDNCLAEESRVIWSDGKLVQDIVLRLRHVECGEVEAQLQWIDLPGKGL
- binding result (6 × His-tagged FER–CD): binds

B4: GST–CAR6 (natural protein)
chain: MEKTEEEVEMKELVGLVRILVKRGIDLARRDALSSDPFVVITMGPQKLKSFTVKNNCNPEWNEELTLAIEDPNEPVKLMVYDKDTFTADDKMGDAQIDMKPFLDVHKLGLKELPHGKELKRIVPTRDNCLSEDSIIVSDNGKIVQDMILLLKNVECGKVEIQLEWLKNPGGSGL
- binding result (6 × His-tagged FER–CD): binds

Results, then the binder that gave them:

- binding result [3]: binds
- binding result (6 × His-tagged FER–CD): binds
B3: GST–CAR9 (natural protein)
chain: B1 chain with A26T, A27S, F30Y

- binding result (6 × His-tagged FER–CD): binds
B5: GST–CAR10 (natural protein)
chain: MDQKPLGLLTIHVKRGINLAIRDHRSSDPYIVLNVADQTLKTRVVKKNCNPVWNEEMTVAIKDPNVPIRLTVFDWDKFTGDDKMGDANIDIQPYLEALKMGMELLRLPNGCAIKRVQPSRHNCLSDESSIVWNNGKITQDLILRLNNVECGEIEIMLEWHEGAGCRGITSSSKGGGSSST

Source: publication doi:10.1101/2021.10.13.464316 (bioRxiv, 2021)
